Measurements as given in the supplement of paper PMC10567573.

B1: RIPK4 (parent)
chain: VIDLFDEQGLSALHLAAQGRHAQT
B2: SLC35F2 (parent)
chain: SFMPLVIKVTSATSVNLGILTADL

Variants of: B1
Assay: protein stability index of a GFP-peptide fusion (GPS, HEK-293T) (PSI 1-6); higher = more stable
Settings: c terminus: a fixed tail appended
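Further: lentivirally expressed fusions sorted by FACS into six bins by GFP to DsRed ratio, PSI derived from sequencing read proportions per bin multiplied by bin number.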

Protein stability index: each site, then its substitutions
Q23: P 2.66 | K 3.17 | A 2.67 | I 2.16 | E 3.48 | M 1.84 | V 2.53 | S 2.6 | G 2.8 | D 3.69 | T 2.72 | F 1.76 | Y 2.06 | C 2.59 | R 3.49 | W 1.93 | N 2.84 | H 2.49 | L 2.52
T24: K 3.13 | A 2.5 | E 4 | C 2.57 | Q 2.51 | N 2.92 | G 3.15 | V 2.69 | D 3.76 | P 2.41 | I 2.47 | F 1.86 | M 2.63 | H 2.38 | Y 1.91 | L 2.09 | W 1.86 | R 3.38 | S 2.51

Variants of: B2
Assay: as above
Settings: c terminus: a fixed tail appended

Protein stability index of substitutions, site by site:
T13: I 3.67 | F 2.53 | L 2.94 | Y 3.88 | A 3.02 | W 2.75 | H 4 | D 3.02 | Q 2.25 | V 2.43 | G 2.38 | R 3.63 | K 2.16 | E 2.6 | P 3.09 | C 3.16 | S 2.59 | N 2.55 | M 2.34
N16: Y 3.46 | T 3.43 | A 2.18 | E 2.55 | I 4.17 | K 3.43 | R 3.2 | M 3.88 | L 3.94 | H 2.74 | Q 3.34 | F 3.69 | G 2.93 | D 2.94 | C 3.4 | W 2.82 | V 4.07
S11: V 2.64 | Q 2.23 | D 2.91 | L 1.96 | A 4.19 | K 2.9 | F 4.62 | C 2.19 | I 4.08 | T 2.03 | N 4.93 | E 2.8 | M 3.94
V9: P 1.7 | S 1.56 | A 2.07 | R 1.81 | Q 3.26 | T 1.46 | Y 3.58 | N 2.39 | W 2.28 | H 1.52 | E 1.58 | I 3.17 | C 3.06 | L 4.15 | G 2.17 | K 1.48 | D 1.78 | F 3.51
F2: I 3.41 | T 2.87 | H 1.71 | M 2.47 | A 2.38 | G 3.11 | V 2.68 | P 2.47 | C 2.58 | K 3 | S 2.92 | L 2.42 | E 2.65 | D 2.12 | R 2.01 | N 2.48 | Q 3.56
L17: R 2.5 | D 2.04 | W 3.32 | T 2.56 | P 2.74 | A 2.48 | Y 2.6 | Q 3.52 | M 3.87 | G 2.9 | K 3.17 | H 2.92 | S 2.85 | C 3.14 | V 2.44 | I 2.77 | F 2.72 | E 2.24 | N 2.99
K8: H 2.59 | T 3 | C 3.64 | A 2.83 | E 3.06 | V 3.52 | N 3.01 | R 3.26 | I 3.97 | W 2.13 | Q 2.87 | Y 3.43 | M 2.42 | D 2.75 | G 2.94 | P 2.19 | S 3.16
V15: S 3.78 | C 2.21 | D 3.98 | W 4.14 | L 3.01 | K 3.59 | A 3.38 | M 3.77 | N 2.58
